{"source": "patent US20210046191A1", "key": {"[1]": {"target": "C5a receptor C5aR (CD88) on human blood neutrophils (human) (UniProt P21730)", "sequence (P21730 whole entry)": "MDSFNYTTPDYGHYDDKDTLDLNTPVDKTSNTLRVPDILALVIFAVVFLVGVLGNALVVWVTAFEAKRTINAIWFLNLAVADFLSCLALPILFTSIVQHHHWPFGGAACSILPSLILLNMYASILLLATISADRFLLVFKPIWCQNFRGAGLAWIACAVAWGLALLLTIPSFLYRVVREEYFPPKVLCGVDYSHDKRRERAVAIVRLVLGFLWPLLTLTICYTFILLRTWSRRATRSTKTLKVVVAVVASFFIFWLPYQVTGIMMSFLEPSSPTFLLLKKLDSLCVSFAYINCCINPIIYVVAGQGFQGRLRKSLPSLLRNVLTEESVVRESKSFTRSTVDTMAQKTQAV", "assay": "cell-based or functional assay"}, "[2]": {"target": "C5a receptor C5aR (CD88) on human blood neutrophils (human) (UniProt P21730)", "assay": "cell-based or functional assay", "remark": "listed apart in the source"}, "[3]": {"target": "recombinant human C5a (rhC5a) (human) (UniProt P01031)", "sequence (P01031 678-751 limits assumed)": "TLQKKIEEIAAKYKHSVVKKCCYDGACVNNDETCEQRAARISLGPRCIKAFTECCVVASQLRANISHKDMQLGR"}}, "note": "Where two headings read alike, the source gives them in different places.", "data": [{"substance": "anti-C5aR (CD88) antibody Clone 7H110", "values": [{"measurement": "Blocking activity (%) on CD11b upregulation; Pat. 088 | Clone 7H110 (50 nM)", "setting": "[1]", "value": 75.7, "unit": "%"}, {"measurement": "Blocking activity (%) on CD11b upregulation; Pat. 092 | Clone 7H110 (50 nM)", "setting": "[1]", "value": 78.7, "unit": "%"}, {"measurement": "Blocking activity (%) on CD11b upregulation; huPP | rhC5a | Clone 7H110 (50 nM)", "setting": "[1]", "value": 70.7, "unit": "%"}, {"measurement": "CD11b (mean MFI) on neutrophils; Pat. 088 | Clone 7H110 (50 nM)", "setting": "[1]", "value": 3560, "unit": "MFI"}, {"measurement": "CD11b (mean MFI) on neutrophils; Pat. 092 | Clone 7H110 (50 nM)", "setting": "[1]", "value": 3390, "unit": "MFI"}, {"measurement": "CD11b (mean MFI) on neutrophils; huPP | rhC5a | Clone 7H110 (50 nM)", "setting": "[1]", "value": 3380, "unit": "MFI"}]}, {"substance": "anti-C5aR (CD88) antibody Clone S5/1", "values": [{"measurement": "Blocking activity (%) on CD11b upregulation; Pat. 088 | Clone S5/1 (50 nM)", "setting": "[1]", "value": 72.7, "unit": "%"}, {"measurement": "Blocking activity (%) on CD11b upregulation; Pat. 092 | Clone S5/1 (50 nM)", "setting": "[1]", "value": 75.9, "unit": "%"}, {"measurement": "Blocking activity (%) on CD11b upregulation; huPP | rhC5a | Clone S5/1 (50 nM)", "setting": "[1]", "value": 73, "unit": "%"}, {"measurement": "CD11b (mean MFI) on neutrophils; Pat. 088 | Clone S5/1 (50 nM)", "setting": "[1]", "value": 3740, "unit": "MFI"}, {"measurement": "CD11b (mean MFI) on neutrophils; Pat. 092 | Clone S5/1 (50 nM)", "setting": "[1]", "value": 3560, "unit": "MFI"}, {"measurement": "CD11b (mean MFI) on neutrophils; huPP | rhC5a | Clone S5/1 (50 nM)", "setting": "[1]", "value": 3290, "unit": "MFI"}]}, {"substance": "recombinant human C5a (rhC5a) (from UniProt P01031 678-751) (ligand)", "values": [{"measurement": "CD11b (mean MFI) on neutrophils; huPP | rhC5a (20 nM)", "setting": "[1]", "value": 6330, "unit": "MFI"}, {"measurement": "CD11b (mean MFI) on neutrophils; huPP | rhC5a (20 nM)", "setting": "[2]", "value": 8330, "unit": "MFI"}]}, {"substance": "irrelevant human IgG4 antibody", "values": [{"measurement": "blocking activity (%) of rhC5a-induced CD11b upregulation on neutrophils, human whole blood, flow cytometry; bar 'IgG4 control : rhC5a = 1:1' against rhC5a (16.7 nM) alone", "setting": "[3]", "value": 7, "unit": "%"}]}, {"substance": "PMX-53 (peptide)", "values": [{"measurement": "Blocking activity (%) on CD11b upregulation; Pat. 088 | PMX 53 (50 nM)", "setting": "[1]", "value": 55.5, "unit": "%"}, {"measurement": "Blocking activity (%) on CD11b upregulation; Pat. 092 | PMX 53 (50 nM)", "setting": "[1]", "value": 56.7, "unit": "%"}, {"measurement": "Blocking activity (%) on CD11b upregulation; huPP | rhC5a | PMX 53 (50 nM)", "setting": "[1]", "value": 50.3, "unit": "%"}, {"measurement": "CD11b (mean MFI) on neutrophils; Pat. 088 | PMX 53 (50 nM)", "setting": "[1]", "value": 4730, "unit": "MFI"}, {"measurement": "CD11b (mean MFI) on neutrophils; Pat. 092 | PMX 53 (50 nM)", "setting": "[1]", "value": 4660, "unit": "MFI"}, {"measurement": "CD11b (mean MFI) on neutrophils; huPP | rhC5a | PMX 53 (50 nM)", "setting": "[1]", "value": 4240, "unit": "MFI"}, {"measurement": "Blocking activity (%) on CD11b upregulation; Pat. 088 | PMX 53 (20 µM)", "setting": "[2]", "value": 104, "unit": "%"}, {"measurement": "Blocking activity (%) on CD11b upregulation; Pat. 092 | PMX 53 (20 µM)", "setting": "[2]", "value": 109, "unit": "%"}, {"measurement": "Blocking activity (%) on CD11b upregulation; huPP | rhC5a | PMX 53 (20 µM)", "setting": "[2]", "value": 108, "unit": "%"}, {"measurement": "CD11b (mean MFI) on neutrophils; Pat. 088 | PMX 53 (20 µM)", "setting": "[2]", "value": 2030, "unit": "MFI"}, {"measurement": "CD11b (mean MFI) on neutrophils; Pat. 092 | PMX 53 (20 µM)", "setting": "[2]", "value": 1910, "unit": "MFI"}, {"measurement": "CD11b (mean MFI) on neutrophils; huPP | rhC5a | PMX 53 (20 µM)", "setting": "[2]", "value": 1850, "unit": "MFI"}]}]}
